The Immune Epitope Database (IEDB)

Columns and labels:
HLA-A*02:01 = test: IEDB peptide-MHC binding, purified MHC/competitive/fluorescence; filed as Kd, often an IC50 or EC50 that approximates it; ≥ and ≤ were set here for values at or beyond the usual limits of such assays
HLA-A*02:03 = test: as above
HLA-A*02:11 = test: as above; conditions: source organism: Vibrio vulnificus
HLA-A*02:12 = test: as above
HLA-A*02:16 = test: as above; conditions: source organism: Vibrio vulnificus
HLA-A*02:19 = test: as above
HLA-A*03:01 = test: as above
HLA-A*23:01 = test: as above
HLA-A*24:03 = test: as above
HLA-A*26:01 = test: as above
HLA-A*29:02 = test: as above
HLA-A*68:02 = test: as above; conditions: source organism: Vibrio vulnificus
HLA-A*69:01 = test: as above; conditions: source organism: Vibrio vulnificus
HLA-B*15:01 = test: as above
HLA-B*15:17 = test: as above; conditions: source organism: Vibrio vulnificus
HLA-B*18:01 = test: as above
HLA-B*27:03 = test: as above
HLA-B*39:01 = test: as above
HLA-B*46:01 = test: as above
HLA-B*51:01 = test: as above
HLA-B*57:01 = test: as above
HLA-A*24:02 = test: as above
HLA-C*14:02 = test: IEDB peptide-MHC binding, purified MHC/direct/fluorescence; filed as Kd, often an IC50 or EC50 that approximates it; ≥ and ≤ were set here for values at or beyond the usual limits of such assays
HLA-C*06:02 = test: as above; conditions: source organism: Cryptosporidium parvum Iowa II
HLA-C*15:02 = test: as above; conditions: source organism: Cryptosporidium parvum Iowa II
HLA-B*53:01 = test: IEDB peptide-MHC binding, purified MHC/competitive/fluorescence; ≥ and ≤ were set here for values at or beyond the usual limits of such assays; conditions: source organism: Human herpesvirus 4 type 2
[1] = source organism: Vibrio vulnificus
[2] = source organism: Bacillus thuringiensis serovar tochigiensis BGSC 4Y1
[3] = source organism: Vibrio vulnificus YJ016
[4] = source organism: Cryptosporidium parvum Iowa II

DEWECTRDD
Kd (HLA-A*02:01; [1]): ≥ 20 µM | Kd (HLA-A*02:03; [1]): ≥ 20 µM | Kd (HLA-A*02:11): ≥ 20 µM | Kd (HLA-A*02:12; [1]): ≥ 20 µM | Kd (HLA-A*02:16): ≥ 20 µM | Kd (HLA-A*02:19; [1]): ≥ 20 µM | Kd (HLA-A*03:01; [1]): ≥ 20 µM | Kd (HLA-A*23:01; [1]): ≥ 20 µM | Kd (HLA-A*24:03; [1]): ≥ 20 µM | Kd (HLA-A*26:01; [1]): ≥ 20 µM | Kd (HLA-A*29:02; [1]): ≥ 20 µM | Kd (HLA-A*68:02): ≥ 20 µM | Kd (HLA-A*69:01): ≥ 20 µM | Kd (HLA-B*15:01; [1]): ≥ 20 µM | Kd (HLA-B*15:17): ≥ 20 µM | Kd (HLA-B*18:01; [1]): 0.0594 µM | Kd (HLA-B*27:03; [1]): ≥ 20 µM | Kd (HLA-B*39:01; [1]): ≥ 20 µM | Kd (HLA-B*46:01; [1]): ≥ 20 µM | Kd (HLA-B*51:01; [1]): ≥ 20 µM | Kd (HLA-B*57:01; [1]): ≥ 20 µM

IYAAISYMI
Kd (HLA-A*24:02; source organism: Salmonella enterica subsp. enterica serovar Typhi): ≤ 0.0001 µM

KYAKFFQNF
Kd (HLA-C*14:02; [2]): 0.428 µM | Kd (HLA-A*24:02; [2]): ≤ 0.0001 µM

LTDEQKNAV
Kd (HLA-A*02:01; [3]): ≥ 20 µM | Kd (HLA-A*02:03; [3]): ≥ 20 µM | Kd (HLA-A*02:12; [3]): 0.856 µM | Kd (HLA-A*02:19; [3]): ≥ 20 µM | Kd (HLA-A*03:01; [3]): ≥ 20 µM | Kd (HLA-A*23:01; [3]): ≥ 20 µM | Kd (HLA-A*24:03; [3]): ≥ 20 µM | Kd (HLA-A*26:01; [3]): ≥ 20 µM | Kd (HLA-A*29:02; [3]): ≥ 20 µM | Kd (HLA-B*15:01; [3]): ≥ 20 µM | Kd (HLA-B*18:01; [3]): ≥ 20 µM | Kd (HLA-B*27:03; [3]): ≥ 20 µM | Kd (HLA-B*39:01; [3]): ≥ 20 µM | Kd (HLA-B*46:01; [3]): ≥ 20 µM | Kd (HLA-B*51:01; [3]): ≥ 20 µM | Kd (HLA-B*57:01; [3]): ≥ 20 µM

SFLHWFHHL
Kd (HLA-C*06:02): ≥ 20 µM | Kd (HLA-C*14:02; [4]): 0.111 µM | Kd (HLA-C*15:02): ≥ 20 µM | Kd (HLA-A*23:01; [4]): ≤ 0.0001 µM

SFYKNLIW
Kd (HLA-A*24:02; source organism: Influenza A virus (A/swine/Korea/Hongsong2/2004(H1N2))): 0.138 µM

TAYCPLQHW
IC50 (HLA-B*53:01): 0.0326 µM
